{"source": "paper PMC7365847", "origin": "cited, not measured here", "key": {"[1]": {"target": "IL-18BP (Homo sapiens) (UniProt O95998)", "sequence (O95998 31-194)": "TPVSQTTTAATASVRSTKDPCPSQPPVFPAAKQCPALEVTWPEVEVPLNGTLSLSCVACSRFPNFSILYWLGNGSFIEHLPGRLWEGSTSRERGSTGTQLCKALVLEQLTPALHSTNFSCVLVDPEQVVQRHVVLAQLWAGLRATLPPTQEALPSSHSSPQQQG"}, "[2]": {"target": "IL-1β (Homo sapiens) (UniProt P01584)", "sequence (P01584 117-269)": "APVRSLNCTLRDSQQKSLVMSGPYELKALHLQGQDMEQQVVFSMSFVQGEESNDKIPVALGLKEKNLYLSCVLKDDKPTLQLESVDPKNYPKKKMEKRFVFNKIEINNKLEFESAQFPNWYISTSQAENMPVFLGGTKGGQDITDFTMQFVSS"}, "[3]": {"target": "IL-1Ra (Homo sapiens) (UniProt P18510)", "sequence (P18510 26-177)": "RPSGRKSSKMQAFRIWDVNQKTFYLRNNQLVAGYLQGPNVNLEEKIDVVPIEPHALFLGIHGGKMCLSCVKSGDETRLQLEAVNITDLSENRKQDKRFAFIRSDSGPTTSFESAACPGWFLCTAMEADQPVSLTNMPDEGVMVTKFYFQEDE"}, "[4]": {"target": "IL-1β (Homo sapiens) (UniProt P01584)", "remark": "listed apart in the source"}}, "note": "Where two headings read alike, the source gives them in different places.", "data": [{"substance": "IL-18 (from UniProt Q14116)", "values": [{"measurement": "Kd", "setting": "[1]", "result": 0.4, "unit": "nM"}]}, {"substance": "sIL-1R2 (from UniProt P27930)", "values": [{"measurement": "Kd", "setting": "[2]", "result": 2.7, "unit": "nM"}, {"measurement": "Kd", "setting": "[3]", "result": 25000, "unit": "nM"}]}, {"substance": "sIL-1R2/sIL-1R3 complex (from UniProt P27930)", "values": [{"measurement": "Kd", "setting": "[4]", "result": 0.0056, "unit": "nM"}]}]}
